Consider two substances from article PMC10191836.

The target in test [1] is fibrillin microfibrils purified from bovine ciliary zonules (bovine (endogenous in ciliary zonule)). Briefly: cryo-EM structure; native bovine ciliary zonule microfibrils in 20 mM Tris-HCl, 150 mM NaCl, 2 mM CaCl2 pH 7.4; single-particle reconstruction of bead (9.7 Å) and arm (18.3 Å) regions, C2 symmetry imposed.
Test [2] has the same target. Briefly: STEM mass mapping; full-length LTBP-1 incubated with bovine microfibrils at a 2:1 molar ratio for 4 h at 4 °C; mass per microfibril repeat with and without LTBP-1.

As for “fibrillin microfibrils purified from bovine ciliary zonules (complex)”, the fibrillin monomers per microfibril repeat (monomers per repeat) in test [1] came out at 8.

“full-length human LTBP-1S (short splice form of latent TGFβ-binding protein-1) (natural protein)”: the stoichiometry N (LTBP-1 molecules per microfibril repeat) in test [2] amounted to 2.
